Where two headings read alike, the source gives them in different places.
T1: Human ADAM10 protease containing the catalytic/disintegrin domains (human, UniProt O14672 214-672, limits assumed)
T1 construct: domain: catalytic/disintegrin domains; Bought; also called ADAM 10 (human) Cat/Dis; ADAM10 catalytic/disintegrin construct
T1 sequence (looked up): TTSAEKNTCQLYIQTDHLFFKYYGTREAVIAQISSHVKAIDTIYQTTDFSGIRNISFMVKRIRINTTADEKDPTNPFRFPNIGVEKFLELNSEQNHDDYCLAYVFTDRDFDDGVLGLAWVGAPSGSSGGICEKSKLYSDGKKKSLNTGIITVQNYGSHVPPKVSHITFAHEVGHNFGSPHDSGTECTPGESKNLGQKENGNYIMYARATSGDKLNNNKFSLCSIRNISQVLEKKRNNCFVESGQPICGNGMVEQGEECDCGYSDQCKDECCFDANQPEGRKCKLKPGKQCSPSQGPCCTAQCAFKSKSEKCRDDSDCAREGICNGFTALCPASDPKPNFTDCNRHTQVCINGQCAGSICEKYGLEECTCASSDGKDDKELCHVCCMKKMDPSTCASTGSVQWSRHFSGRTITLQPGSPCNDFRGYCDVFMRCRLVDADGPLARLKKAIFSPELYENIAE

T2: ADAM 8 catalytic domain (mouse) (mouse, UniProt Q05910 196-395, limits assumed)
T2 construct: domain: catalytic domain; also called ADAM 8 (mouse); ADAM 8 (mouse) Cat
T2 sequence (looked up): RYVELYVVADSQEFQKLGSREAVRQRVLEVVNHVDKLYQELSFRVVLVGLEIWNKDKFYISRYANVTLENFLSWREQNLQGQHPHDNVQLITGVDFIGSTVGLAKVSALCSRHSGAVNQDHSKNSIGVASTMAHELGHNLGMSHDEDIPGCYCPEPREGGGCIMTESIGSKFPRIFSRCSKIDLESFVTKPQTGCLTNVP

T3: human ADAM 9 catalytic/disintegrin domains (human, UniProt Q13443 206-697, limits assumed)
T3 construct: domain: catalytic/disintegrin domains; Bought; also called ADAM 9 (human)
T3 sequence (looked up): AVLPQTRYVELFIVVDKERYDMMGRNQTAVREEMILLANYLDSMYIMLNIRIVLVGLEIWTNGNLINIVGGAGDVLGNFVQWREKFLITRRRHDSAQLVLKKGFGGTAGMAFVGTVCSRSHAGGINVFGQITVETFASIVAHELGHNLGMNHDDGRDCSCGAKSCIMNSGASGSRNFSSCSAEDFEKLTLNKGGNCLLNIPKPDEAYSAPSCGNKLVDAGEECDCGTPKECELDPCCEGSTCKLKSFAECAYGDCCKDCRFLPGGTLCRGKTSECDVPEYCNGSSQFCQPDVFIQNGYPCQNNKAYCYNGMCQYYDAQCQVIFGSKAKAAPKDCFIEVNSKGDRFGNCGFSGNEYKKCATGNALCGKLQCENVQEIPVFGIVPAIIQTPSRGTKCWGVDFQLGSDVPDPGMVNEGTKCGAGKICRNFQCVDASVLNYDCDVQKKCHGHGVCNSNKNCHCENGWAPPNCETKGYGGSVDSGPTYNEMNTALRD

B1: wt ProADAM 10 23-213 (N-terminal His tag) (other)
chain: NPLNKYIRHYEGLSYNVDSLHQKHQRAKRAVSHEDQFLLLDFHAHGRQFNLRMKRDTSLFSDEFKVETSNKVPDYDTSHIYTGHIYGEEGSFSHGSVIDGRFEGFIKTRGGTFYIEPAERYIKDRILPFHSVIYHEDDINYPHKYGPQGGCADHSVFERMRKYQMTGVEEGARAHPEKHAASSGPELLRKK
notes: Expressed in E. coli, purified on Ni-NTA and Superdex-75; the wild type has Cys there; not shown: N-terminal His tag and leader encoded by the pRSET vector (insert at BamHI/EcoRI)
B2: wt ProADAM 10 23-213 (C-terminal His tag) (other)
chain: NPLNKYIRHYEGLSYNVDSLHQKHQRAKRAVSHEDQFLLLDFHAHGRQFNLRMKRDTSLFSDEFKVETSNKVPDYDTSHIYTGHIYGEEGSFSHGSVIDGRFEGFIKTRGGTFYIEPAERYIKDRILPFHSVIYHEDDINYPHKYGPQGGCADHSVFERMRKYQMTGVEEGARAHPEKHAASSGPELLRKKHHHHHH
notes: the wild type has Cys there

What was measured:
MMP 9 = molecular target: T4, MMP 9; experiment: enzyme inhibition, fluorescent peptide substrate
T4 construct: also called matrix metalloproteinase 9
Protocol: (§1) Inhibition assays with TACE and ADAM 10. Activity of TACE catalytic/disintegrin, TACE catalytic, or ADAM10 catalytic/disintegrin constructs was monitored at 3 minute intervals using the fluorescent substrate, Dabcyl-LAQAHomoPheRSC(Fluorescein)-NH₂ (SEQ ID NO 17) with excitation 485 nm and emission 530 nm. The substrate was diluted from a 10 mM stock in DMSO to 10 μM in assay buffer containing 20 mM Tris, pH 8.0, and 0.0006% Brij-35. Reactions were run in a 96-well black-coated plate with either ADAM10 prodomain (10 nM-1.0 μM) alone or with enzyme. Concentrations of enzyme ranged from 0.5-2.0 nM for TACE and 5-15 nM for ADAM10. For assays with TACE and ADAM8 prodomain, the range of concentrations varied from 1-4.7 μM.
(§2) Inhibition assays with MMPs. The fluorescent substrate Dabcyl-[…](Fluorescein)-NH₂ (SEQ ID NO 18) (10 μM) in assay buffer containing 50 mM Tris, pH 7.5, 150 mM NaCl, 2 mM CaCl₂, 5 μM ZnSO₄, and 0.01% Brij-35 was used to monitor enzyme activities. MMPs 1, 2, 3, 9, 13, and 14 (0.1-20 nM) were incubated with substrate in the absence or presence of prodomain (3-30 μM). Fluorescence intensities were measured every 3-5 minutes at an emission wavelength of 530 nm (excitation 485 nm).
(§3) Inhibition assays with ADAM 9. The fluorescent substrate, Dabcyl-PchaGC(Me)HAK(Fam)-NH₂ (SEQ ID NO 19) (10 μM), in a buffer containing 25 mM Tris, pH 8.0, 0.0006% Brij-35, was used to measure human ADAM 9 catalytic/disintegrin domains activity. The ADAM 9 was provided as a 0.1 μg/μl stock solution, from which 3 μl was added to start the reaction in the absence or presence of ADAM10 prodomain (78-5000 nM). Fluorescence intensities were measured every 10-20 minutes at excitation and emission wavelengths of 485 and 530 nm respectively.

MMP 14 = molecular target: T5, MMP 14; experiment: enzyme inhibition, fluorescent peptide substrate
T5 construct: also called matrix metalloproteinase 14
Protocol: as §1, §2, §3

MMP 3 = molecular target: T6, MMP 3; experiment: enzyme inhibition, fluorescent peptide substrate
T6 construct: also called matrix metalloproteinase 3
Protocol: as §1, §2, §3

[1] = molecular target: T1, Human ADAM10 protease containing the …; experiment: enzyme inhibition, fluorescent peptide substrate
Protocol: as §1, §2, §3

[2] = molecular target: T7, Human TACE protease containing the catalytic/disintegrin domains (human, UniProt P78536 215-671, limits assumed); experiment: enzyme inhibition, fluorescent peptide substrate
T7 construct: domain: catalytic/disintegrin domains; Bought; also called TACE (human) Cat/Dis; TACE catalytic/disintegrin
Protocol: as §1, §2, §3

MMP 13 = molecular target: T8, MMP 13; experiment: enzyme inhibition, fluorescent peptide substrate
T8 construct: also called matrix metalloproteinase 13
Protocol: as §1, §2, §3

[3] = molecular target: T9, TACE catalytic domain (human) (human, UniProt P78536 215-477, limits assumed); experiment: enzyme inhibition, fluorescent peptide substrate
T9 construct: domain: catalytic domain; also called TACE (human) Cat
Protocol: as §1, §2, §3

MMP 2 = molecular target: T10, MMP 2; experiment: enzyme inhibition, fluorescent peptide substrate
T10 construct: also called matrix metalloproteinase 2
Protocol: as §1, §2, §3

MMP 1 = molecular target: T11, MMP 1; experiment: enzyme inhibition, fluorescent peptide substrate
T11 construct: also called matrix metalloproteinase 1
Protocol: as §1, §2, §3

[4] = molecular target: T2, ADAM 8 catalytic domain (mouse); experiment: enzyme inhibition, fluorescamine assay with Dnp peptide substrate
Protocol: Inhibition assays with ADAM 8. The ADAM 8 catalytic domain was expressed and purified from E. coli as described (22). A substrate based on the L-selectin cleavage site, Dnp-INorIeu[…]-NH₂ (SEQ ID NO 20), was used to monitor enzyme activity with a fluorescamine assay. From a concentrated 50 mM solution in DMSO, the substrate was diluted 1:500 in 25 mM HEPES, pH 8.0, 0.0006% Brij-35. To 100 μl of diluted substrate was added either 5 μl of buffer (Tris, pH 8.0, 150 mM KCl) or 5 μl of ADAM10 prodomain (1-10 μM). Zero time points were taken by diluting 12.5 μl of the reaction mixture into 100 μl of fluorescamine buffer (50 mM HEPES, pH 8.0, 0.2 M NaCl, 0.01 M CaCl₂, 0.01% Brij-35) in a 96-well black-coated plate. Before measuring fluorescence, 3 μl of a 1% solution of fluorescamine in DMSO was added to each well. The plate was allowed to incubate for 10 min in the dark before measuring fluorescence (excitation wavelength at 390 nm, emission wavelength at 485 nm). For assays with TACE and ADAM8 prodomains, a fluorescent substrate was used to monitor activity at concentrations of prodomains ranging from 1-4.7 μM.
Calculation of inhibition constants. The amount of activity was calculated by subtracting the ADAM 10 prodomain control from the ADAM 10 prodomain with enzyme. […]

[5] = molecular target: T1, Human ADAM10 protease containing the …; experiment: enzyme inhibition, fluorescent peptide substrate; fit to a pure competitive model
Protocol: ADAM 10 protein was diluted 1:100 in buffer 25 mM Tris pH 8, 0.0006% Brij-35 and then 10 μl was added to 88 μl of substrate (20-100 μM), Dabcyl-LAQAHomoPheRSC(Fluorescein)-NH₂ with excitation 485 nm and emission 530 nm. Prodomain, 2 μl, in 25 mM Tris, pH 8, 100 mM NaCl, 10% glycerol, 0.1% mercaptoethanol, and 50 μM CaCl₂ was added to substrate before addition of enzyme. The final concentration of prodomain ranged from 17-170 nM. The fluorescence vs time was plotted, and slopes were taken from straight line fits of initial velocities. The reciprocal of the velocities was plotted vs the reciprocal of substrate squared since the normal Lineweaver Burke plot gave curved lines. The initial velocities vs substrate concentrations were fit as a family of curves to several allosteric models. The data fit best to a pure competitive model as described in the following equation where binding of inhibitor prevents substrate from binding to both sites: […]

[6] = molecular target: T3, human ADAM 9 catalytic/disintegrin …; experiment: enzyme inhibition, fluorescent peptide substrate
Protocol: as §1, §2, §3

[7] = molecular target: T3, human ADAM 9 catalytic/disintegrin …; experiment: enzyme inhibition, fluorescent peptide substrate; remark: listed apart in the source
Protocol: as §3
Calculation of inhibition constants. The amount of activity was calculated by subtracting the ADAM 10 prodomain control from the ADAM 10 prodomain with enzyme. All inhibition assays were performed at room temperature and the data fit to the following equation using Sigma Plot software: […]

T9 sequence (P78536 215-477 limits assumed): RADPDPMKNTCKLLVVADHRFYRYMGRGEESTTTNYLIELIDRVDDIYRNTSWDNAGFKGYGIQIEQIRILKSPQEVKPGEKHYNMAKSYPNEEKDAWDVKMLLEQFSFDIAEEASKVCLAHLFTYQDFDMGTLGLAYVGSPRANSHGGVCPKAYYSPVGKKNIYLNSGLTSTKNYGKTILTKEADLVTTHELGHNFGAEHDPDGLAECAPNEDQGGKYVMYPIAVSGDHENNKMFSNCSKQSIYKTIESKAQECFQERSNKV
T7 sequence (P78536 215-671 limits assumed): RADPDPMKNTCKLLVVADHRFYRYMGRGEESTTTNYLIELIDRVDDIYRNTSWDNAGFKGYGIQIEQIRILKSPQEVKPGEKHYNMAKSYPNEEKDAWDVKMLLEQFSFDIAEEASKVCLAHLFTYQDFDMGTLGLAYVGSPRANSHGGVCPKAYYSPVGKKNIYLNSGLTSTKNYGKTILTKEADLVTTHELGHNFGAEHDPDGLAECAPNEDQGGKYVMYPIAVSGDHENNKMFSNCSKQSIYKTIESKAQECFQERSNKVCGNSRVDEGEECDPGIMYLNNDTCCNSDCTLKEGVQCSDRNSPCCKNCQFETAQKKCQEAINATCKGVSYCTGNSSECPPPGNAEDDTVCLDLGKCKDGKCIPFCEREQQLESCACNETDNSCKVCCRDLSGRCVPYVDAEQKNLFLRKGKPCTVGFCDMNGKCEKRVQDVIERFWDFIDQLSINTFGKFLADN
T10 sequence (P08253 110-660): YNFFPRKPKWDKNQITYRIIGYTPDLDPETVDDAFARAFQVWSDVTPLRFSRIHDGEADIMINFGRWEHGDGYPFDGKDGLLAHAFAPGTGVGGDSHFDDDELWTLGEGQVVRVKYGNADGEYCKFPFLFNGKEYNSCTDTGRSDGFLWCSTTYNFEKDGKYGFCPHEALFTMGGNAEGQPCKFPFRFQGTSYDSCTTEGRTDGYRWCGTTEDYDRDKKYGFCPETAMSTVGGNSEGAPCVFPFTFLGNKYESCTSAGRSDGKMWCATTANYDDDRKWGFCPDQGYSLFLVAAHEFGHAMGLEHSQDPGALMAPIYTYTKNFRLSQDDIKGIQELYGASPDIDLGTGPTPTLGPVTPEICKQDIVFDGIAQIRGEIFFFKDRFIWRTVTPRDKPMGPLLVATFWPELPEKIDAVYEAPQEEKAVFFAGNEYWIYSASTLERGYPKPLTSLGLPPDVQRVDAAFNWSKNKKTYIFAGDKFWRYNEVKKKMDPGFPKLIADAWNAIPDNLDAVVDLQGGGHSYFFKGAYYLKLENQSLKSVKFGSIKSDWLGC
T6 sequence (P08254 100-477): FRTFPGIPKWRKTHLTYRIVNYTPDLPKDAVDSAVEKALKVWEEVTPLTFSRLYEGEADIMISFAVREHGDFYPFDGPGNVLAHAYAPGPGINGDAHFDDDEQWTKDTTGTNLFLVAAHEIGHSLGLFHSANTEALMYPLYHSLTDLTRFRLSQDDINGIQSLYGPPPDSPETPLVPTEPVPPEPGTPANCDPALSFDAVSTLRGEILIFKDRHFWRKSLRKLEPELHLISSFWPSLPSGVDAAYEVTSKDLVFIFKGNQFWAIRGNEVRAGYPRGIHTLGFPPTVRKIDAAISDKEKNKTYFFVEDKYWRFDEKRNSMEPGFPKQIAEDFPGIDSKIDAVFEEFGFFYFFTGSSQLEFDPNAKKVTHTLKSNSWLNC
T4 sequence (P14780 107-707): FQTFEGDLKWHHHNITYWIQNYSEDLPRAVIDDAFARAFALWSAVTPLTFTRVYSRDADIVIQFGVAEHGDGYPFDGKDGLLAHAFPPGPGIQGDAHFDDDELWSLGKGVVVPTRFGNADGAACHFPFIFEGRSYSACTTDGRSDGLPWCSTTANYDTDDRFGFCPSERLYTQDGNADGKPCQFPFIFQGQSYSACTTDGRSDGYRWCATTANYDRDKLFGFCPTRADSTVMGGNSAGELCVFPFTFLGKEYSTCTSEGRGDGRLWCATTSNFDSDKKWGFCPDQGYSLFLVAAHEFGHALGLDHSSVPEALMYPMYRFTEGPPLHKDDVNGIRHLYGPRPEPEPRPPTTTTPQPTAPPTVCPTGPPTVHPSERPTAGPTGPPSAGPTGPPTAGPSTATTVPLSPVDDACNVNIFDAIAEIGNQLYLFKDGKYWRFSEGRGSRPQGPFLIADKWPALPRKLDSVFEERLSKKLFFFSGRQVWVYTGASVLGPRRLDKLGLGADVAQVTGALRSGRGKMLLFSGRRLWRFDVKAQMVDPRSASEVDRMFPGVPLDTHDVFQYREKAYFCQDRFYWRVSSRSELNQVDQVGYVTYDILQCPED
T11 sequence (P03956 100-469): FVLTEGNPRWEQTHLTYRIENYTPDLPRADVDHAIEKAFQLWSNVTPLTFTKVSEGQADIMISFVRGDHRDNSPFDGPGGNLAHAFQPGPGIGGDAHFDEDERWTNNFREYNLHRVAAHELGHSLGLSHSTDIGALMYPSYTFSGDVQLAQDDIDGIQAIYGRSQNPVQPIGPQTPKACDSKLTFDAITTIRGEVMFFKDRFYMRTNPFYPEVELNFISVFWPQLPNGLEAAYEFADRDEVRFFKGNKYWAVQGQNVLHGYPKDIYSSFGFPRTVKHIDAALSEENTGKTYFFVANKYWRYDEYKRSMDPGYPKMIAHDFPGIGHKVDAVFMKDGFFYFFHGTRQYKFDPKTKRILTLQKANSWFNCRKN

Binder	Ki (MMP 9)	Ki (MMP 14)	Ki (MMP 3)	Ki [1]	Ki [2]	Ki (MMP 13)	Ki [3]	Ki (MMP 2)	Ki (MMP 1)	Ki [4]	Ki [5]	Ki [6]	Ki [7]
B1	> 2000 nM	> 2000 nM	> 2000 nM	75 nM	> 3000 nM	> 2000 nM	> 11000 nM	> 2000 nM	> 2000 nM				
B2					> 10000 nM		> 11000 nM			> 10000 nM	48 nM	> 1000 nM	~1000 nM

— patent publication US20100081620A1 (BIOZYME, published 2010)
